Data taken from paper PMC5628483, “Soluble polymorphic bank vole prion proteins induced by co-expression of quiescin sulfhydryl oxidase in E. coli and their aggregation behaviors” (Microbial Cell Factories, 2017).

Columns and labels:
[1] = molecular target: full-length recombinant bank vole prion protein with methionine at residue 109 (rBVPrP-109M) (bank vole (Myodes glareolus), UniProt Q8VHV5 23-231); assay: SPR; conditions: both partners purified
[2] = molecular target: full-length recombinant bank vole prion protein with isoleucine at residue 109 (rBVPrP-109I) (bank vole (Myodes glareolus), UniProt Q8VHV5 23-231, 109I); assay: SPR; conditions: both partners purified

B1: Quiescin sulfhydryl oxidase (QSOX) (enzyme)
chain: APRSALYSPSDPLTLLQADTVRGAVLGSRSAWAVEFFASWCGHCIAFAPTWKALAEDVKAWRPALYLAALDCAEETNSAVCRDFNIPGFPTVRFFKAFTKNGSGAVFPVAGADVQTLRERLIDALESHHDTWPPACPPLEPAKLEEIDGFFARNNEEYLALIFEKGGSYLGREVALDLSQHKGVAVRRVLNTEANVVRKFGVTDFPSCYLLFRNGSVSRVPVLMESRSFYTAYLQRLSGLTREAAQTTVAPTTANKIAPTVWKLADRSKIYMADLESALHYILRIEVGRFPVLEGQRLVALKKFVAVLAKYFPGRPLVQNFLHSVNEWLKRQKRNKIPYSFFKTALDDRKEGAVLAKKVNWIGCQGSEPHFRGFPCSLWVLFHFLTVQAARQNVDHSQEAAKAKEVLPAIRGYVHYFFGCRDCASHFEQMAAASMHRVGSPNAAVLWLWSSHNRVNARLAGAPSEDPQFPKVQWPPRELCSACHNERLDVPVWDVEATLNFLKAHFSPSNIILDFPAAGSAARRDVQNVAAAPELAMGALELESRNSTLDPGKPEMMKSPTNTTPHVPAEGPELI
Work on B1 yielded a Kd [1] of 23 nM and a Kd [2] of 11 nM.
